In US8461305B2, “L-fucose α1→6 specific lectin” (J-Oil Mills, Inc., priority 2008, dated 2013):

T1: Invertase (yeast) (Saccharomyces cerevisiae, UniProt P00724)
T1 sequence (P00724 20-532): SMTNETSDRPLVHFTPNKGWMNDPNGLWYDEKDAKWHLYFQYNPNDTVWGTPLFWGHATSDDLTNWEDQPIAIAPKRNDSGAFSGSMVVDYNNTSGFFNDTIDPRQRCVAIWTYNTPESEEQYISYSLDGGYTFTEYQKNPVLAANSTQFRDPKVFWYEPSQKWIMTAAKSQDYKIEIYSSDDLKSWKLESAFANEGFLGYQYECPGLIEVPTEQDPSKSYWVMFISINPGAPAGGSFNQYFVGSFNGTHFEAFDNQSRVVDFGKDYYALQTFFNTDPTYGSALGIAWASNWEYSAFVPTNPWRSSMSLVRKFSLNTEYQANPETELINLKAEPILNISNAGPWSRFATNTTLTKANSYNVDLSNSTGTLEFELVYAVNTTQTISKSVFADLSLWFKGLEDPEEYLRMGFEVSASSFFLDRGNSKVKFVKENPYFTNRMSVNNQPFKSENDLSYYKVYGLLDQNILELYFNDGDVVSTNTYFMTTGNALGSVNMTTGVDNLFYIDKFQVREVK

B1: Lens culinaris agglutinin (protein)
chain 1: TETTSFSITKFSPDQKNLIFQGDGYTTKGKLTLTKAVKSTVGRALYSTPIHIWDRDTGNVANFVTSFTFVIDAPSSYNVADEFTFFIAPVDTKPQTGGGYLGVFNSKEYDKTSQTVAVEFDTFYNAAWDPSNKERHIGIDVNSIKSVNTKSWNLQNGERANVVIAFNAATNVLTVTLTYP
chain 2: VTSYTLNEVVPLKDVVPEWVRIGFSATTGAEFAAHEVHSWSFHSELGGTSSS
B2: Aleuria aurantia lectin (protein)
chain: PTEFLYTSKIAAISWAATGGRQQRVYFQDLNGKIREAQRGGDNPWTGGSSQNVIGEAKLFSPLAAVTWKSAQGIQIRVYCVNKDNILSEFVYDGSKWITGQLGSVGVKVGSNSKLAALQWGGSESAPPNIRVYYQKSNGSGSSIHEYVWSGKWTAGASFGSTVPGTGIGATAIGPGRLRIYYQATDNKIREHCWDSNSWYVGGFSASASAGVSIAAISWGSTPNIRVYWQKGREELYEAAYGGSWNTPGQIKDASRPTPSLPDTFIAANSSGNIDISVFFQASGVSLQQWQWISGKGWSIGAVVPTGTPAGW

Experiments:
Test in all cases: detection of glycoprotein by Western blotting with biotin-labeled lectin
Type in all cases: binding
Design in all cases: key: ◯: Detected; X: Not detected
[1] = molecular target: Blood serum albumin (bovine) (Bos taurus, UniProt P02769); details: (O) Blood serum albumin (bovine), No sugar chain; biotin-labeled lectin 2 μg/ml
Blood serum albumin (bovine), sequence (P02769 25-607): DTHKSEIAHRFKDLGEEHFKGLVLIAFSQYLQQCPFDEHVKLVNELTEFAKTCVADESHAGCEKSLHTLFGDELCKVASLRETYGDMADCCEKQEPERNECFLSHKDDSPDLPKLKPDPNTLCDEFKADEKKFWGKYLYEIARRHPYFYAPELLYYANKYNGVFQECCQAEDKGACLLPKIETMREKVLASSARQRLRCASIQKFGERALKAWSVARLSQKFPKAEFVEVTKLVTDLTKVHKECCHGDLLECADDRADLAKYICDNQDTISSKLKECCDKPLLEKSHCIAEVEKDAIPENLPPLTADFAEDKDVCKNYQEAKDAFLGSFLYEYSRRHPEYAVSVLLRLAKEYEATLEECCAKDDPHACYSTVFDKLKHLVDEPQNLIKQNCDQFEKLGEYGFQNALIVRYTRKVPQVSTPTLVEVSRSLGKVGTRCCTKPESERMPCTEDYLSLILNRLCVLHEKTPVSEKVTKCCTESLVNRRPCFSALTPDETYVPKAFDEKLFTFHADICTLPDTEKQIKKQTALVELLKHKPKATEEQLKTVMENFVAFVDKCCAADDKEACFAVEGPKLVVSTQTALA
Experimental: (§1) PTL of Example 1, SRL of Example 2, AAL of Comparison Example 1, AOL of Comparison Example 2, and LCA of Comparison Example 3 all subjected to biotin-labeling.
(§2) Lectin was measured and was dissolved in 0.1 M sodium hydrogen carbonate solution (5 mg/ml). Then, a biotinylation reagent was dissolved in dimethyl sulfoxide and the resultant solution was added to lectin solution to cause reaction therebetween. Then, the reactant was […] and lyophilized, thereby obtain biotin-labeled lectin.
(§3) The solution obtained by dissolving the glycoprotein sample in 10 mM phosphate buffered saline (pH 7.4, PBS) at 2 mg/ml was dispensed to a microtube by a unit of 18 μl. 6 μl of SDS process liquid (Sample Buffer Solution (2ME−); Wako Pure Chemical Industries, Ltd.) and 1.25 μl of 2-mercaptoethanol (Bio-Rad Laboratories, Inc.) was added to each dispensed fluid and the resultant mixture was boiled for 5 minutes.
(§4) The film was immersed in 10 mM Tris buffer solution including 0.8% NaCl added with 1% BSA (pH 7.4, 1% BSA+TBS) and was shaken at a room temperature for one hour. Then, the film was cleaned three times by 10 mM Tris buffer solution (pH 7.4, TBS) including 0.8% NaCl. Then, the film was immersed in biotin-labeled lectin solution (2 μg/ml) and was shaken at a room temperature for one hour. Then, the film was cleaned three times by TBS. Then, the film was immersed in the HRP label streptavidin solution at 1 μg/ml (Vector Laboratories) and was shaken at a room temperature for 30 minutes. After the film was cleaned three times by TBS, a POD immunostain set (Wako Pure Chemical Industries, Ltd.) was used to perform a staining test. The staining test is to detect glycoprotein by the western blotting using biotin-labeled lectin. FIG. 13 to FIG. 17 are photographs showing the following glycoproteins stained by PTL (FIG. 13), SRL (FIG. 14), AAL (FIG. 15), AOL (FIG. 16), or LCA (FIG. 17).
(§5) In FIG. 13 to FIG. 17, the lanes 0 to 6 correspond to the followings. Lane 1: thyroglobulin, lane 2: lactoferrin, lane 3: immune immunoglobulin, lane 4: transferrin, lane 5: α1-acidic glycoprotein, lane 6: invertase, lane 0: bovine serum albumin (control)

[2] = system: Immune-globulin G (human); details: (3) Immune-globulin G (human), N-linked glycan having α1→6 L-fucose; biotin-labeled lectin 2 μg/ml
Experimental: as §1, §2, §3, §4, §5

[3] = molecular target: T1, Invertase (yeast); details: (6) Invertase (yeast), High mannose-type sugar chain; biotin-labeled lectin 2 μg/ml
Experimental: as §1, §2, §3, §4, §5

[4] = molecular target: Lactoferrin (bovine) (Bos taurus, UniProt P24627); details: (2) Lactoferrin (bovine), N-linked glycan having α1→6 L-fucose; biotin-labeled lectin 2 μg/ml
Lactoferrin (bovine), sequence (P24627 20-708): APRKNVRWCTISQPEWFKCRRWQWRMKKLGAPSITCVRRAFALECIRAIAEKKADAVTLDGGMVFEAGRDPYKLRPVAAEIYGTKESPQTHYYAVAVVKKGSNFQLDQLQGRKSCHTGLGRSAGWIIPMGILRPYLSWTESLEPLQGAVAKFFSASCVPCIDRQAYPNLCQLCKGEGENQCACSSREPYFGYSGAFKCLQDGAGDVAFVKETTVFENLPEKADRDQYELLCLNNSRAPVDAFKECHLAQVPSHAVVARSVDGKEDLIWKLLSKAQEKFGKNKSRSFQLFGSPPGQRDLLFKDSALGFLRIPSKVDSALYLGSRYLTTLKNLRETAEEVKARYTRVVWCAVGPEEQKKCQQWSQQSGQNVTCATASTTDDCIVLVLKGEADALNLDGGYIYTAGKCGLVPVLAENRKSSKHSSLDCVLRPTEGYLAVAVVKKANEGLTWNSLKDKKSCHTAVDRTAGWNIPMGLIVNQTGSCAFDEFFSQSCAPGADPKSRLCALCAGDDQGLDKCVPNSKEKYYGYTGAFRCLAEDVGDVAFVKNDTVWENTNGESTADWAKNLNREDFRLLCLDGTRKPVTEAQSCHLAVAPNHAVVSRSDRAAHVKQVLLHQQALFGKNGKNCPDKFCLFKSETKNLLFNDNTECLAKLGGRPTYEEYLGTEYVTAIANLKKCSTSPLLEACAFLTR
Experimental: as §1, §2, §3, §4, §5

[5] = molecular target: Thyroglobulin (pig) (Sus scrofa, UniProt F1RRV3); details: (1) Thyroglobulin (pig), N-linked glycan having α1→6 L-fucose; biotin-labeled lectin 2 μg/ml
Thyroglobulin (pig), sequence (F1RRV3 20-2692): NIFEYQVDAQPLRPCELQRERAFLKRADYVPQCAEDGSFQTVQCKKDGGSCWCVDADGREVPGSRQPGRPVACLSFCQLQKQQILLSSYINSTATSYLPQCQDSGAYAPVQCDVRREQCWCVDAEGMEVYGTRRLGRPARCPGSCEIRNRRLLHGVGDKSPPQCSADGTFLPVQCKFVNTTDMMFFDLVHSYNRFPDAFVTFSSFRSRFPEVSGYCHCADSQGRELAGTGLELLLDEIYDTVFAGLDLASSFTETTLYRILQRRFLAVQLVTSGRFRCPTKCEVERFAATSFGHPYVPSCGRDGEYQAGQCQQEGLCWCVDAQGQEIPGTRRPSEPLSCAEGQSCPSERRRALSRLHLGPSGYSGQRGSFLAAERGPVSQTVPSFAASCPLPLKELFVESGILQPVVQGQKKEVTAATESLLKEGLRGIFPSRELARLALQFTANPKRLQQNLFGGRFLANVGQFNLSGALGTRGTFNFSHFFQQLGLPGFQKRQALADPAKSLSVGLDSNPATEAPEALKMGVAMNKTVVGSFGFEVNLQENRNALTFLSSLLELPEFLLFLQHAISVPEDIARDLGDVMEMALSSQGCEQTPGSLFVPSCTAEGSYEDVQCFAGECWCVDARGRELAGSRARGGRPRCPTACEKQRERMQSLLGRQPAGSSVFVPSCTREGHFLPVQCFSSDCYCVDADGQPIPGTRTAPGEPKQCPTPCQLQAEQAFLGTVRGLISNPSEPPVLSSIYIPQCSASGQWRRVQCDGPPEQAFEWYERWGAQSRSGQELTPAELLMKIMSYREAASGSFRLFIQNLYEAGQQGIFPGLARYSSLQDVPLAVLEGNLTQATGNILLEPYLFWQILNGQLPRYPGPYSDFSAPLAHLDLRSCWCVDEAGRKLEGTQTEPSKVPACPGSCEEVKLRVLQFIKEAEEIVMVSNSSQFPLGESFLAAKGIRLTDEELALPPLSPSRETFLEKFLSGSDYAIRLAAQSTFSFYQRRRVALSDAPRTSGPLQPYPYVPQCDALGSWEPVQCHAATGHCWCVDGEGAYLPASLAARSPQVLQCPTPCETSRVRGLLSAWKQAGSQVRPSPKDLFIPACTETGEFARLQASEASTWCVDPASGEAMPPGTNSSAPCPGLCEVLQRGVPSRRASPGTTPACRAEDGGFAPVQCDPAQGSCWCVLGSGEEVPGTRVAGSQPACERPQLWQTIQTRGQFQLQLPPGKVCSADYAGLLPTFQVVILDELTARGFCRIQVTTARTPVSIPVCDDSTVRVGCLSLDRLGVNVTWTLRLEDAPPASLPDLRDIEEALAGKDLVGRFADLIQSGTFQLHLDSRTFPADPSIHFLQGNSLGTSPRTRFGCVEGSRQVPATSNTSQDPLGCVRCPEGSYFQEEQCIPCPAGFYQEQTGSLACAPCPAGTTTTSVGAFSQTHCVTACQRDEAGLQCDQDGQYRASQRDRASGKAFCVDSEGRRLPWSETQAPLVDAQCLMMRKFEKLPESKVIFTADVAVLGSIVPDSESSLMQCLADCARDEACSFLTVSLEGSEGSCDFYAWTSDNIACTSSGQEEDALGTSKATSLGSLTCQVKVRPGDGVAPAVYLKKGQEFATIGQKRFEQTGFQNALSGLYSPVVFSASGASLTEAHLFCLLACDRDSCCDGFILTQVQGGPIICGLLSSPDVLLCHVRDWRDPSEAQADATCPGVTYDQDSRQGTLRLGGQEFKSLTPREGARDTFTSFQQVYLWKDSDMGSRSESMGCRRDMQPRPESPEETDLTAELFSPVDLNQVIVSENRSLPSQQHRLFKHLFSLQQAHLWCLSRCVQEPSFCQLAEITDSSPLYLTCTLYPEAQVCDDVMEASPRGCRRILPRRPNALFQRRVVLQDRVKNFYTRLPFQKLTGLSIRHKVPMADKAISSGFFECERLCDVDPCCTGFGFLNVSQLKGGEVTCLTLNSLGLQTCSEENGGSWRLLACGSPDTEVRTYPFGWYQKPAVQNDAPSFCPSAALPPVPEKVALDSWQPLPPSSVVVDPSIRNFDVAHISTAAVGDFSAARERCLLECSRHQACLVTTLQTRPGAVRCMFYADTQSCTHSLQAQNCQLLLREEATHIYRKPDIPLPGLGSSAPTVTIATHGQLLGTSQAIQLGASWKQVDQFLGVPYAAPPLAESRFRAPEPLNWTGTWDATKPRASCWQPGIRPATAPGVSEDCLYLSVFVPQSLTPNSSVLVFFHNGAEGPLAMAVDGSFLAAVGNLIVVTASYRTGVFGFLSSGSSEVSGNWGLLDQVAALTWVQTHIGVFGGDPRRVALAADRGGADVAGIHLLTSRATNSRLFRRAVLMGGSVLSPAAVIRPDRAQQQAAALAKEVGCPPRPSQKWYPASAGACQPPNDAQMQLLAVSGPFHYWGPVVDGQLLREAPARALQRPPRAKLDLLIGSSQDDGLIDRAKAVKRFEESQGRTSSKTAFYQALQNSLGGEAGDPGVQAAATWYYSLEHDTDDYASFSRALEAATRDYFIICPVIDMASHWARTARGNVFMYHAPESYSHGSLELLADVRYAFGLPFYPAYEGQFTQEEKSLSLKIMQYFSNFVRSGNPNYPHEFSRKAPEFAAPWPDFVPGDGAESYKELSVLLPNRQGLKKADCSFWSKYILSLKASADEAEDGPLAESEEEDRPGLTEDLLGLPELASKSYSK
Experimental: as §1, §2, §3, §4, §5

[6] = molecular target: Transferrin (human) (Homo sapiens, UniProt P02787); details: (4) Transferrin (human), N-linked glycan not including α1→6 L-fucose; biotin-labeled lectin 2 μg/ml
Transferrin (human), sequence (P02787 20-698): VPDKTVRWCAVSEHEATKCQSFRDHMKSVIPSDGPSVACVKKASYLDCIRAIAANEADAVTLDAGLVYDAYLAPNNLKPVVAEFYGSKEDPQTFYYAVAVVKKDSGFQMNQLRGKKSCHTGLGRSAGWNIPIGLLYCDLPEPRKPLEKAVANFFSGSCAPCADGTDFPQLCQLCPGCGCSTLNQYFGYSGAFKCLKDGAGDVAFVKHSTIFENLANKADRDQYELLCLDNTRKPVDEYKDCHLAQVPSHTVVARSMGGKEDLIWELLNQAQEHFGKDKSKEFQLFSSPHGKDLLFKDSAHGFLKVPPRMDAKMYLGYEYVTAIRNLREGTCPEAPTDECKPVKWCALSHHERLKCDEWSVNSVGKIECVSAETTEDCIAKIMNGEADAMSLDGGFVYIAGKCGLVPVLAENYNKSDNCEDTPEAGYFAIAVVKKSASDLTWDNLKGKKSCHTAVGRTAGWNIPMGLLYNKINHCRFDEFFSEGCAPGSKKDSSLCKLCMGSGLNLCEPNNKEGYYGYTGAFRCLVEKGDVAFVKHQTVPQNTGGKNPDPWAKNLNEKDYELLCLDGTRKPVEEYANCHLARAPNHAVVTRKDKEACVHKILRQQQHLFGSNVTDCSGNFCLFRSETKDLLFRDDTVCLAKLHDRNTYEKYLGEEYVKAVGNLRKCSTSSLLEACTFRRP
Experimental: as §1, §2, §3, §4, §5

[7] = system: α1-acidic glycoprotein (human); details: (5) α1-acidic glycoprotein (human), N-linked glycan having α1→3 L-fucose; biotin-labeled lectin 2 μg/ml
Experimental: as §1, §2, §3, §4, §5

Row | Molecule | detection of glycoprotein by Western blotting [1] | detection of glycoprotein by Western blotting [2] | detection of glycoprotein by Western blotting [3] | detection of glycoprotein by Western blotting [4] | detection of glycoprotein by Western blotting [5] | detection of glycoprotein by Western blotting [6] | detection of glycoprotein by Western blotting [7]
1 | Stropharia rugosoannulata lectin [SRL, novel L-fucose α1→6 specific lectin purified from the mushroom Stropharia rugosoannulata] | X | ◯ | X | ◯ | ◯ | X | X
2 | Pholiota terrestris lectin [PTL, novel L-fucose α1→6 specific lectin purified from the mushroom Pholiota terrestris] | X | ◯ | X | ◯ | ◯ | X | X
3 | Aspergillus oryzae lectin [AOL, reference compound] | X | ◯ | X | ◯ | ◯ | X | X
4 | B1 | X | ◯ | ◯ | ◯ | ◯ | X | X
5 | B2 | X | ◯ | X | ◯ | ◯ | X | X
